The values below come from article PMC2786245 (Biochemistry, 2009).

This series concerns the molecule itself. In words: native gel or EMSA.

B1: PII Δ47−53 (deletion of the apex of the T-loop) (natural protein, Escherichia coli, UniProt P0A9Z1 1-112, looked up)
chain: MKKIDAIIKPFKLDDVREALAEVGITGMTVTEVKGFGRQKGHTELYDFLPKVKIEIVVPDDIVDTCVDTIIRTAQTGKIGDGKIFVFDVARVIRIRTGEEDDAAI
In the case of B1, the binding result is listed as “binds”.
